Source: US8962819B2, “Anti-C5 alpha antibodies” (Adienne S.A., priority 2002, dated 2015)

Experiments:
factor C5 = target: T1, factor C5 (Homo sapiens, UniProt P01031); experiment: Surface plasmon resonance (BIACORE 2000) on C5 immobilized on chip; type: binding; settings: TS-A12/22 versus TS-A12 after VL chain shuffling
T1 construct: C5 alpha and beta subunits were obtained by incubating 50 μg of C5; purchased Quidel
Experimental: The binding affinity of the Tsa-12 antibody, purified by means of FPLC on Superdex 75 (Pharmacia), for factor C5 was measured by means of BIACORE™ 2000 (a system that generates unique data on the interactions between proteins and other molecules). The microchip (CM5, Biacore) was prepared by direct conjugation of the C5 antigen with amines (20 μg/ml in 10 mM Sodium Acetate pH 4.5). The final level of immobilisation turned out to be approximately 1000 RU (Resonance Units). Association and dissociation of antibody molecules from the bio-chip were measured using an optical detection system (Surface Plasmon Resonance). The analysis was carried out at 25° C., at a flow of 15 μl/min, using 4 different scFv concentrations in the range comprised between 100-300 nM, in PBS, 0.005% P20 (Biacore). The binding curves were interpolated 1:1 according to the model of Langmuir, using the dedicated software termed BIAevaluation (version 3.5) with correction for the mass transfer. In order to increase the affinity, the TS-A12 antibody was subjected to substitution (“shuffling”) of the VL light chains. For this purpose the phagemid DNA was cut with BssHII and SaII to excise the VL region. This region was substituted with all the repertoire of VL chains of a preimmune library (Sblattero, D., and Bradbury A., 2000, Nat. Biotechnol. 18:75) that was prepared with same enzymes. […]

C5 beta chain = target: T2, C5 beta chain (Homo sapiens, UniProt P01031); experiment: Immunoblotting on separated C5 chains; type: binding; settings: 100 ng chain, FIG. 2 lane 2
T2 construct: Lane 1: 100 ng of C5 alpha chain; lane 2: 100 ng of beta chain; purchased Quidel
T2 sequence (P01031 19-673 limits assumed): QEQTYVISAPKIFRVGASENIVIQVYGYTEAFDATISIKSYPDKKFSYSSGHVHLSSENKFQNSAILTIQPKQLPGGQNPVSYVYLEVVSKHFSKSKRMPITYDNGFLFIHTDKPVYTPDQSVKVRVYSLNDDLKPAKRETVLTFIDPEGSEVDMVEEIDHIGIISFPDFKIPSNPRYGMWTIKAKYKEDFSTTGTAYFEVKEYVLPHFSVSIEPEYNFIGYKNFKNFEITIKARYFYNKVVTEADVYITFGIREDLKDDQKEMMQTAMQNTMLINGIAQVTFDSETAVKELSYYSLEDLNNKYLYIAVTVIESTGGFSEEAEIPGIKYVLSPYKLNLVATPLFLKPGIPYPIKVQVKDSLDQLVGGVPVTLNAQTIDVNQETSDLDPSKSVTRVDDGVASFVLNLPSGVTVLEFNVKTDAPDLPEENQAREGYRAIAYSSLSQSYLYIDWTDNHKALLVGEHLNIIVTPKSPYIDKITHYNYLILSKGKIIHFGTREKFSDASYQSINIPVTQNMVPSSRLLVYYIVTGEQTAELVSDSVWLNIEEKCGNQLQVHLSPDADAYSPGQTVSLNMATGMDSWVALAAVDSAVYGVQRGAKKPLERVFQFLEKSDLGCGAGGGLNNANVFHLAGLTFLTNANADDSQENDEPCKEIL
Experimental: The alpha and beta chains of C5 were electrophoretically separated by means of SDS-PAGE in 10% polyacrylamide and then transferred onto nitrocellulose. […] Lane 1: 100 ng of C5 alpha chain; lane 2: 100 ng of beta chain; lane 3: mixture of the two chains. […] It can be seen that scFv TSA-12/22 recognises the alpha chain of C5 in lane 1, but not the beta chain in lane 2.
Purified proteins. Purified components C4 to C9 were purchased from Quidel (Saint Diego, Calif.) and the human recombinant C5a component was purchased from SIGMA-ALDRICH® S.r.1. (Milan, Italy). C5 alpha and beta subunits were obtained by incubating 50 μg of C5 diluted in 0.55 M TRIS-HCl pH 8.1 containing DTT (0.02 M) for 30 min at room temperature (RT), followed by treatment with iodoacetamide (0.12 M) for 1 hour at RT. Alpha and beta chains were purified by gel filtration on Superose 12 (Pharmacia Biotech, Milan, Italy) in Fast Protein Liquid Chromatography (FPLC) and purity was assessed by SDS-PAGE in non-reducing conditions.
It was first characterised, by means of the Western-blotting technique, whether the TS-A12/22 antibody recognises the alpha or beta of subunit of the C5 complement component prepared as described in Materials. Briefly the two subunits were electrophoresed in separate wells and transferred on nitrocellulose membranes. A solution containing Tris 50 mM pH 7.6, 0.5 M NaCl and 4% skimmed powder milk was used to block non-specific sites for 1 hour at 37° C. […] The enzymatic reaction was developed with blue tetrazolium and 5-bromo-4-chlorine-3-indolil phosphate (SIGMA-ALDRICH®, 0.30 mg/ml) diluted in 0.1 M Tris-HCl pH 9.5 containing 0.1 M NaCl and 5 mM MgCl2. Rainbow RPN 756 ([…]™ Italy (a trademark of General Electric Healthcare Limited)) were used as molecular weight markers.

T1 sequence (P01031 678-1676 limits assumed, one chain of several): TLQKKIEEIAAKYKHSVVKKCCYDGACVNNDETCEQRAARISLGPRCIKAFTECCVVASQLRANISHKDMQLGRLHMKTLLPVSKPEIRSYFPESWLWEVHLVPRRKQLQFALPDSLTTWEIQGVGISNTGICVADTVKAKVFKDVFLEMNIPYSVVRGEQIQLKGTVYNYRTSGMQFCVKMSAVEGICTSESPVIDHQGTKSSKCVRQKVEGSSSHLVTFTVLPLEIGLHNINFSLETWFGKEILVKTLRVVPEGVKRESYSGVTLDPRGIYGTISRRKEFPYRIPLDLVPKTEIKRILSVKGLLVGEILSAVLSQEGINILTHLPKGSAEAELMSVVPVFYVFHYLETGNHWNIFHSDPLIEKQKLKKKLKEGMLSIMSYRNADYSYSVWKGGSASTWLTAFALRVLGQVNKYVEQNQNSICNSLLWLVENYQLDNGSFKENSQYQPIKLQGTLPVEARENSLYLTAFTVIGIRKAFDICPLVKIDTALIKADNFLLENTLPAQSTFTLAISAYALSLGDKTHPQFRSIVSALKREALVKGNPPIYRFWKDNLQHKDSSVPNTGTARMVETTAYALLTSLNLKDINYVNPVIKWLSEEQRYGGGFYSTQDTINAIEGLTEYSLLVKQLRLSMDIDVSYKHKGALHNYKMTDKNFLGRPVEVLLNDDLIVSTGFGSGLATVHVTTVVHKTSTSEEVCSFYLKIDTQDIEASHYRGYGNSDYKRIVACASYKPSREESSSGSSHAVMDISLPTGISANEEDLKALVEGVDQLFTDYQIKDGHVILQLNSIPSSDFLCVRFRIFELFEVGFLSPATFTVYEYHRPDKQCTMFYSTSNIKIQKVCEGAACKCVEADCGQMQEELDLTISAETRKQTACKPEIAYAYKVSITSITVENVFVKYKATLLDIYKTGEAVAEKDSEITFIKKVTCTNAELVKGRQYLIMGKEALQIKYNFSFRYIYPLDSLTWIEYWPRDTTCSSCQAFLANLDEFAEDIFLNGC

B1: TS-A12/22: anti-C5 scFv obtained from TS-A12 by VL chain shuffling; VH3/V-48 and Vλ3/V2-14; amino acid sequence SEQ ID NO:6 (protein, listed as Homo sapiens)
scFv: DIRMTQSPDSLAVSLGERATINCKSSQSVLYSSNNKNYLAWYQQKPGQPPKLLIYWASTRESGVPDRFSGSGSGTDFTLTISSLQAEDVAVYYCQQYYSTPQLTFGGRTKVDIKSGGSTITSYNVYYTKLSSSGTQVQLQQSEGGVVQPGRSLRLSCAASGFTFSSYGMNWVRQAPGKGLEWVSYISSSSSTIYYADSVKGRFTISRDNSKNTLYLQMNSLRAEDTAVYYCARGPGMDVWGQGTTVTVSS
Factor C5
  increment of molar affinity: approximately one order of magnitude
C5 beta chain
  recognition of C5 beta sub-unit: does not recognise
C5 beta chain; listed as TSA-12/22
  recognition of C5 beta sub-unit: not
